T1: monkey PD-1-hFc (monkey)
T1 construct: Extracellular domain of monkey PD-1 fused to an hFc tag, made in house; not shown: The hFc tag and any linker
T1 chain: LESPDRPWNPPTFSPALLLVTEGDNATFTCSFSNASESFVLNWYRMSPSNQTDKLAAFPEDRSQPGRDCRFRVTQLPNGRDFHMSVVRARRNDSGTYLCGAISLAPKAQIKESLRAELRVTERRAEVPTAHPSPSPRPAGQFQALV

B1: humanized antibody 29C6-HZ1 (antibody, human IgG4 S228P, kappa, V domains shown)
VH: QVQLVQSGAEVKKPGASVKVSCKTSGYTFTEYTIYWVRQAPGQGLEWIGGINPKNGATLYNQKFQGRVTLTVDKSTSTAYMELRSLRSDDTAVYYCVRDYHGNSHDSMDYWGQGTLVTVSS
VL: EIVLTQSPATLSLSPGERATLSCSASSSVSYMHWFQQKPGQAPRLWIYYTSNLASGVPARFSGSGSGTDYTLTISSLEPEDFAVYYCQQRSDYPPTFGGGTKVEIKR
B2: humanized antibody 29C6-HZ2 (antibody, human IgG4 S228P, kappa, V domains shown)
VH: QVQLVQSGVEVKKPGASVKVSCKTSGYTFTEYTIYWVRQAPGQGLEWIGGINPKNGATLYNQKFKVRATLTVDKSTTTAYMELKSLQFDDTAVYYCVRDYHGNSHDSMDYWGQGTTVTVSS
VL: EIVLTQSPATLSLSPGERATLSCSASSSVSYMHWFQQKPGQAPRLLIYYTSNLASGVPARFSGSGSGTDYTLTISSLEPEDFAVYYCQQRSDYPPTFGGGTKVEIKR
B3: humanized antibody 91D5-HZ1 (antibody, human IgG4 S228P, kappa, V domains shown)
VH: EVQLVQSGAEVKKPGASVKVSCKASGYTFTDYYMNWVREAPGQGLEWMGEINPKYGDTTYAQKLQGRVTLTVDKSTSTAYMELSSLRSDDTAVYYCAKGIRLFDSWGQGTLVTVSS
VL: DIQLTQSPSSLSASVGDRVTITCRPSGNVHNYFAWYQQKPGKSPKLLVYNAKTLAEGVPSRFSGSGSGTDYTLTISSLQPEDFATYYCHHYYTAPFTFGGGTKVEIKR
B4: humanized antibody 91D5-HZ2 (antibody, human IgG4 S228P, kappa)
heavy: not shown
light: DIQLTQSPSSLSASVGDRVTITCRPSGNVHNYFAWYQQKPGKSPKLLVYNAKTLAEGVPSRFSGSGSGTDYTLTISSLQPEDFATYYCHHYYTAPFTFGGGTKVEIKRTVAAPSVFIFPPSDEQLKSGTASVVCLLNNFYPREAKVQWKVDNALQSGNSQESVTEQDSKDSTYSLSSTLTLSKADYEKHKVYACEVTHQGLSSPVTKSFNRGEC
B5: chimeric antibody 91D5-CH (antibody, human IgG4 S228P, kappa, V domains shown)
VH: EVQLQQSGPELVKPGASVKISCRASGYTFTDYYMNWVKESHGKSLEWIGEINPKYGDTTYNQKFKDKATLTVDKSSSTASVELRSLTSEDSAVYYCAKGIRLFDSWGQGTTVTVSS
VL: DIQLTQSPASLSASVGETVTITCRPSGNVHNYFAWYQQKQGKSPQLLVYNAKTLAEGVPSRFSGSGSGTQYSLKINSLQPEDFGTYYCHHYYTAPFTFGSGTKLEIKR
notes: Murine 91D5 variable regions fused to the IgG4 (S228P) heavy chain constant region and the human kappa constant region
B6: chimeric antibody 29C6-CH (antibody, human IgG4 S228P, kappa, V domains shown)
VH: QVQLEESGPELVKPGASVKISCKTSGYTFTEYTIYWVKQSHGKSLEWIGGINPKNGATLYNQKFKVKATLTVDKSSSTAYMELRSLTSEDSAVYYCVRDYHGNSHDSMDYWGQGTSVTVSS
VL: QIVLTQSPAIMSASPGEKVTITCSASSSVSYMHWFRQKPGTSPKLWIYYTSNLASGVPAHFSGSGSGTSYSLTISRMEAEDAATYYCQQRSDYPPTFGGGTKLEIKR
notes: Murine 29C6 variable regions fused to the IgG4 (S228P) heavy chain constant region and the human kappa constant region
B7: chimeric antibody 14A4-CH (antibody, human IgG4 S228P, kappa, V domains shown)
VH: EVQLVESGGGLVKPGGSLKLSCAASGFTFSSYGMSWGRQTPEKRLEWVATISGGGSDTYYPDSVKGRFTISRDNVKNNLYLQMSSLRSEDTALYYCARQYGITWFAYWGQGTLVTVSA
VL: not shown
notes: Murine 14A4 variable regions fused to the IgG4 (S228P) heavy chain constant region and the human kappa constant region
B8: chimeric antibody 35E6-CH (antibody, human IgG4 S228P, kappa)
heavy: not shown
light: CIVLTQSPASLAVSLGQSVTISCRASESVEYYGTNLMQWYQQKPGQPPKLLIYFASNVASGVPARFSGSGSGTDFSLNIHPVEGDDIARYFCQQSKKVPSTFGGGTKLEIKRTVAAPSVFIFPPSDEQLKSGTASVVCLLNNFYPREAKVQWKVDNALQSGNSQESVTEQDSKDSTYSLSSTLTLSKADYEKHKVYACEVTHQGLSSPVTKSFNRGEC
notes: Murine 35E6 variable regions fused to the IgG4 (S228P) heavy chain constant region and the human kappa constant region
B9: humanized antibody 35E6-HZ1 (antibody, human IgG4 S228P, kappa)
heavy: not shown
light: EIVLTQSPATLSLSPGERATLSCRASESVEYYGTNLMQWYQQKPGQPPRLLIYFASNVASGIPARFSGSGSGTDFTLTISSLEPEDFAVYFCQQSKKVPSTFGQGTKVEIKRTVAAPSVFIFPPSDEQLKSGTASVVCLLNNFYPREAKVQWKVDNALQSGNSQESVTEQDSKDSTYSLSSTLTLSKADYEKHKVYACEVTHQGLSSPVTKSFNRGEC

Key:
[1] = biological target: T2, human PD-1-His (human, UniProt Q15116 25-170); test: ELISA, coated human PD-1-his
T2 construct: extracellular domain; not shown: His tag
Description: (§1) To verify the affinity of the humanized PD-1 antibody to PD-1-His antigen, ELISA was employed. The specific experimental steps were as follows: human PD-1-his was diluted to 1 μg/mL with CBS solution, then coated on a 96-well ELISA plate (purchased from Guangzhou Jiete Bio) at 4° C. overnight. […] After washing, a goat anti-mouse secondary antibody (FC) labeled with horseradish peroxidase diluted in phosphate buffer (PBS) containing 2% BSA in a ratio of 1:15000 was added, followed by incubating at 37° C. for 1 hour. After washing, the TMB chromogen solution was used for developing, and the absorbance value was read using a microplate reader at 450 nm. The data were imported into Graphprism to calculate EC₅₀ values.

[2] = biological target: T3, human PD-1-hFc (human, UniProt Q15116 25-170); test: competitive ELISA, coated PD-1-hFc, competitor PDL2-mFc
T3 construct: extracellular domain; Extracellular domain of human PD-1 fused to an hFc tag, made in house; not shown: hFc tag
Description: (§2) The specific experimental steps were as follows: human PD-1-hFc was diluted to 1 μg/mL with CBS solution, coated on a 96-well ELISA plate (purchased from Guangzhou Jiete Bio) at 4° C. overnight. After washing, 100 μL of phosphate buffer (PBS) containing 2% BSA was used for blocking at 37° C. for 1 hour. […] After washing, a goat anti-mouse secondary antibody labeled with HRP diluted in phosphate buffer (PBS) containing 2% BSA in a ratio of 1:15000 was added, followed by incubating at room temperature for 1 hour. After washing, the TMB chromogen solution was used for developing, and the absorbance value was read using a microplate reader at 450 nm, and the data were imported into Graphprism to calculate ICs values.

[3] = biological target: T3, human PD-1-hFc; test: competitive ELISA, coated PD-1-hFc, competitor PDL1-mFc
Description: as §2

[4] = biological target: T4, PD-1 on Jurkat-PD-1-NFAT cells (UniProt Q15116 25-288, limits assumed); test: cell-based or functional assay
[5] = biological target: T2, human PD-1-His; test: BLI (Octet ForteBio), antibody on ProA biosensor, PD-1-His in solution
[6] = biological target: T3, human PD-1-hFc; test: competitive ELISA, coated human PD-1-hFc, competitor hPD-L2-mFc
Description: as §2

[7] = biological target: T1, monkey PD-1-hFc; test: ELISA, coated monkey PD-1-hFc
Description: as §1, with “The” for “To verify the affinity of the humanized PD-1 antibody to PD-1-His antigen, ELISA was employed. The”, “PD-1-hFc and monkey PD-1-hFc antigens were” for “PD-1-his was”, “anti-human” for “anti-mouse”, “nm, and the” for “nm. The”

[8] = biological target: T2, human PD-1-His; test: BLI (Octet ForteBio), human PD-1-His
[9] = biological target: T5, full-length human PD-1 on CHO-hPD-1 cells (human, UniProt Q15116 25-288); test: competitive FACS on CHO-hPD-1 cells, competitor PD-L1-mFc-Bio
T5 construct: whole, on cells; also called PD-1 on the cell membrane surface of CHO-hPD-1
Source text: The data were imported into Graphprism to calculate IC₅₀ values.

[10] = biological target: T3, human PD-1-hFc; test: competitive ELISA, coated human PD-1-hFc, competitor hPD-L1-mFc
Description: as §2

[11] = biological target: T4, PD-1 on Jurkat-PD-1-NFAT cells; test: cell-based or functional assay; remark: listed apart in the source
[12] = biological target: T6, human PD-1-ECD-mFc (human; mouse, UniProt Q15116 25-170); test: ELISA, coated antigen (column head: Human PD-1-mFc; text of Example 4.2: human PD-1-hFc)
T6 construct: extracellular domain; Made in HEK293F cells; also called human PD-1-mFc; PD-1-mFc; not shown: mouse Fc (mFc) amino acids, AB097847.1
Description: as §1, with “The” for “To verify the affinity of the humanized PD-1 antibody to PD-1-His antigen, ELISA was employed. The”, “PD-1-hFc and monkey PD-1-hFc antigens were” for “PD-1-his was”, “anti-human” for “anti-mouse”, “nm, and the” for “nm. The”

[13] = biological target: T2, human PD-1-His; test: BLI (Octet ForteBio), antibody on ProA biosensor, human PD-1-His in solution

| Binder | EC50 [1] | IC50 [2] | IC50 [3] | EC50 from the PD-1/PD-L1 luciferase reporter system [4] | Kd [5] | koff [5] | kon [5] | IC50 [6] | EC50 [7] | fold stronger affinity than the control antibody 1 [8] | IC50 [9] | IC50 [10] | EC50 (nM), cell activity for blocking PD-1/PD-L1 binding, luciferase reporter gene assay [11] | EC50 [12] | Kd [13] | koff [13] | kon [13] |
| --- | --- | --- | --- | --- | --- | --- | --- | --- | --- | --- | --- | --- | --- | --- | --- | --- | --- |
| B1 | 0.42 nM | 3.63 nM | 3.11 nM |  |  |  |  |  |  |  |  |  |  |  |  |  |  |
| B2 | 0.16 nM | 0.95 nM | 0.88 nM | 5.74 nM | 1.65 nM | 0.000454 s⁻¹ | 275000 M⁻¹ s⁻¹ |  |  |  |  |  |  |  |  |  |  |
| B3 | 0.39 nM | 1.25 nM | 1.19 nM |  | 1.89 nM | 0.00053 s⁻¹ | 281000 M⁻¹ s⁻¹ |  |  |  |  |  |  |  |  |  |  |
| B4 | 0.42 nM | 1.22 nM | 1.13 nM | 4.47 nM | 1.5 nM | 0.000472 s⁻¹ | 315000 M⁻¹ s⁻¹ |  |  |  |  |  |  |  |  |  |  |
| B5 | 0.29 nM | 1.08 nM | 0.96 nM |  | 0.547 nM | 0.000177 s⁻¹ | 324000 M⁻¹ s⁻¹ | 1.39 nM | 0.235 nM | 11.7 times | 0.96 ng/mL | 1.23 nM | 4.41 nM | 0.09 nM | 0.549 nM | 0.000143 s⁻¹ | 261000 M⁻¹ s⁻¹ |
| B6 | 0.17 nM | 1.31 nM | 1.15 nM |  | 0.516 nM | 0.000166 s⁻¹ | 322000 M⁻¹ s⁻¹ | 1.97 nM | 0.171 nM | 7.3 times | 1.7 ng/mL | 1.73 nM | 10.7 nM | 0.115 nM | 0.88 nM | 0.000198 s⁻¹ | 226000 M⁻¹ s⁻¹ |
| B7 |  |  |  |  |  |  |  | 1.17 nM | 0.171 nM | 4.3 times | 0.75 ng/mL | 1.12 nM | 8.4 nM | 0.082 nM | 1.49 nM | 0.000206 s⁻¹ | 138000 M⁻¹ s⁻¹ |
| B8 | 0.2 nM | 1.11 nM | 0.88 nM |  |  |  |  | 1.78 nM | 0.198 nM | 15.4 times | 1.58 ng/mL | 1.6 nM | 5.53 nM | 0.103 nM | 0.416 nM | 0.000123 s⁻¹ | 296000 M⁻¹ s⁻¹ |
| B9 | 0.3 nM | 1.15 nM | 0.94 nM | 3.63 nM | 1.31 nM | 0.000517 s⁻¹ | 395000 M⁻¹ s⁻¹ |  |  |  |  |  |  |  |  |  |  |
